Data: patent WO2014161570A1
Read-outs that look alike come from different tables or passages of the source. Blank lines part the entries; values can stand above or below the molecule they belong to.

Tests used:
Assay in all cases: ELISA, IL-17A coated on plate, relative binding (Table 6a)
[1] = molecular target: Cynomolgous IL-17A (cynomolgous)
Human IL-17A (human) [2] = molecular target: T1, Human IL-17A (human) (UniProt Q16552)
T1 sequence: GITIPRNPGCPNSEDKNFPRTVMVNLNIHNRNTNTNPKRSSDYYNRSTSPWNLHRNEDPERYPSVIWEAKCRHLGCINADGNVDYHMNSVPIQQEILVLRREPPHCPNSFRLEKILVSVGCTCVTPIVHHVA

Human IL-17A (human) [3] = molecular target: T1, Human IL-17A (human); remark: listed apart in the source

Relative binding to cynomolgous IL-17A in % [1]: 124%
Relative binding to human IL-17A in % (Human IL-17A (human) [2]): 122%
Molecule: eBio64CAP17 (antibody)

Relative binding to human IL-17A in % (Human IL-17A (human) [3]): 127%
B1: <IL17> 9C6-2B6 (mouse clone) (antibody, V domains shown)
VH: QVQLKESGPGLVAPSQSLSITCTVSGFSLDSYGVHWVRQPPGKGLEWLVVIWSDGTTTYNSALKSRLSITKDNSKSQVFLKMNSLQTDDTAIYYCARDTHYRLYYYAMDYWGQGTSVTVSS
VL: DVVMTQTPLSLPVSLGDQASISCRSSQSLVHSNGDTYFHWYLQKPGQSPKLLIYKVSNRFSGVPDRFSGSGSGTDFTLKINRVEAEDLGVYFCSQTTHAPFTFGSGTKLEIK
